The target in assay [1] is T1, biotinylated α-cobratoxin from Naja kaouthia (Naja kaouthia, biotin through amine coupling (NHS-PEG4-Biotin), sites not stated).
T1 chain: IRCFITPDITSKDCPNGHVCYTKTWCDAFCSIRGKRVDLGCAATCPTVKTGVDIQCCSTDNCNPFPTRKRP
Description: BLI. To be noted: both partners purified.

The target in assay [2] is T2, biotinylated α-elapitoxin-Dpp2d from Dendroaspis polylepis (Dendroaspis polylepis (black mamba), UniProt C0HJD7). As to the kind of experiment: BLI; […]; association at pH 7.4, dissociation at pH 5.5; 1:1 global fit. To be noted: both partners purified. On the technique in general: In BLI a coated tip is dipped into the sample, and binding shifts an interference pattern.
T2 sequence (C0HJD7 whole entry): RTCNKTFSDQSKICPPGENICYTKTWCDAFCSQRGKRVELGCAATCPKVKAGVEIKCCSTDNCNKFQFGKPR

Assay [3] deals with T3, biotinylated α-bungarotoxin from Bungarus multicinctus (Bungarus multicinctus). The assay is described as above. To be noted: both partners purified.
Assay [4] deals with T2, biotinylated α-elapitoxin-Dpp2d from …. As to the kind of experiment: BLI; […]; association at pH 7.4, dissociation at pH 7.4; 1:1 global fit, […]. To be noted: both partners purified.
Assay [5] has as its target T3, biotinylated α-bungarotoxin from …. The assay is described as above. To be noted: both partners purified.
Assay [6] deals with T4, α-bungarotoxin from Bungarus multicinctus (Bungarus multicinctus, UniProt P60615).
T4 construct: source: bought: Latoxan L8115, lyophilized purified protein
Description: crystal structure. The note with it: both partners purified.

Assay [7] concerns the target T5, biotinylated α-elapitoxin-Dpp2d from Dendroaspis polylepis (Dendroaspis polylepis (black mamba), UniProt C0HJD7). As to the kind of experiment: DELFIA (dissociation-enhanced lanthanide fluorescence immunoassay). To be noted: one partner purified.
The target of assay [8] is biotinylated α-cobratoxin from Naja kaouthia (Naja kaouthia, UniProt P01391). As to the kind of experiment: BLI. The note with it: both partners purified.
For assay [9], the target named is biotinylated α-bungarotoxin from Bungarus multicinctus (Bungarus multicinctus, UniProt P60615). Description: BLI. To be noted: both partners purified.
The target of assay [10] is T5, biotinylated α-elapitoxin-Dpp2d from …. Description: BLI; […]; association at pH 7.4, dissociation at pH 7.4; 1:1 model, global fit; […]. The note with it: both partners purified.
Target sequence in this assay (C0HJD7 whole entry): as above
Assay [11] shares this target. Description: BLI. To be noted: both partners purified.
Target sequence in this assay (C0HJD7 whole entry): as above

This note sets out measurements from PMC12439581 (mAbs, 2025).

T3 sequence (P60615 22-95): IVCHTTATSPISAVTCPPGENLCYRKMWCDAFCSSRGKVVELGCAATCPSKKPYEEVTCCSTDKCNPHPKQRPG
Sequence of biotinylated α-bungarotoxin from Bungarus multicinctus (P60615 22-95): as above
T4 sequence (P60615 22-95): as above

B1: D11 Fab (Fab, V domains shown)
VH: QVQLVQSGAEVKKPGSSVKVSCKASGGTFSSYAISWVRQAPGQGLEWMGGIIPIFGTANYAQKFQGRVTITADESTSTAYMELRSLRSDDTAVYYCARDNLGYCSGGSCYSDYYYYYMDVWGQGTLVTVSS
VL: NFMLTQPRSVSESPGKTVTISCTRSSGSIGSDYVHWYQQRPGSSPTTVIYEDNQRPSGVPDRFSGSIDSSSNSASLTISGLKTEDEADYYCQSYDRSNHEVVFGGGTKLTVL
By Kd is commonly meant the free concentration of one partner at which half of the binding sites on the other are occupied at equilibrium, for simple one-to-one binding. The low end stands for a tighter complex, the high end for a looser complex. Usually koff stands for the rate constant with which the complex falls apart. A high value points to a short-lived complex. What is called kon is the rate constant with which the complex forms. Higher therefore signals fast association. Consider B1, for which the equilibrium dissociation constant (Kd) in assay [1] was found to be 1.8 ± 0.5 nM; in assay [4], 1.4 ± 0.6 nM; in assay [5], 116 ± 19.6 nM. Also, the koff came to 0.00029 s⁻¹ in [1], 0.00041 s⁻¹ in [2], 0.005 s⁻¹ in assay [3] and 0.0047 s⁻¹ in assay [5]. The kon in assay [1] amounted to 65000 M⁻¹ s⁻¹; in assay [4], 121000 M⁻¹ s⁻¹; in [5], 13000 M⁻¹ s⁻¹.

B2: D11 scFv, 6xHis-FLAG removed with TEV protease (construct for crystals) (scFv, V domains shown)
VH: QVQLVQSGAEVKKPGSSVKVSCKASGGTFSSYAISWVRQAPGQGLEWMGGIIPIFGTANYAQKFQGRVTITADESTSTAYMELRSLRSDDTAVYYCARDNLGYCSGGSCYSDYYYYYMDVWGQGTLVTVSS
VL: NFMLTQPRSVSESPGKTVTISCTRSSGSIGSDYVHWYQQRPGSSPTTVIYEDNQRPSGVPDRFSGSIDSSSNSASLTISGLKTEDEADYYCQSYDRSNHEVVFGGGTKLTVL
notes: source: E. coli BL21(DE3), purified (HisTrap, TEV cleavage, SEC)
In the case of B2, the binding result in assay [6] is listed as “binds”.

B3: C05 scFv with T31D (CDR-L1) (scFv, V domains shown)
VH: QVQLVQSGAEVKKPGSSVKVSCKASGGTFSSYAISWVRQAPGQGLEWMGGIIPIFGTANYAQKFQGRVTITADESTSTAYMELRSLRSDDTAVYYCARDNLGYCSGGSCYSDYYYYYMDVWGQGTLVTVSS
VL: NFMLTQPHSVSESPGKTVTISCTRSSGSIASDYVHWYQQRPGSAPTTVIYEDNQRPSGVPDRFSGSIDSSSNSASLTISGLKTEDEADYYCQSYDSSNGSVVFGGGTKLTVL
notes: source: E. coli BL21(DE3), in culture supernatant
With B3, the binding result in [7] is given as “binds”.

B4: D11 Fab (Fab, V domains shown)
VH: QVQLVQSGAEVKKPGSSVKVSCKASGGTFSSYAISWVRQAPGQGLEWMGGIIPIFGTANYAQKFQGRVTITADESTSTAYMELRSLRSDDTAVYYCARDNLGYCSGGSCYSDYYYYYMDVWGQGTLVTVSS
VL: NFMLTQPRSVSESPGKTVTISCTRSSGSIGSDYVHWYQQRPGSSPTTVIYEDNQRPSGVPDRFSGSIDSSSNSASLTISGLKTEDEADYYCQSYDRSNHEVVFGGGTKLTVL
notes: also called D11 mAb
In the case of B4, the off-rate constant (koff) turned out to be 0.00012 s⁻¹ in [8] and 0.00015 s⁻¹ in [10]. In addition, the binding result in assay [9] is “binds”.

B5: G09 Fab (Fab, V domains shown)
VH: QVQLVQSGAEVKKPGSSVKVSCKASGGTFSSYAISWVRQAPGQGLEWMGGIIPIFGTANYAQKFQGRVTITADESTSTAYMELRSLRSDDTAVYYCARDNLGYCSGGSCYSDYYYYYMDVWGQGTLVTVSS
VL: SYELTQPPSVSVAPGRTATITCEGDNIGQQIVHWYRQKSDQAPVVVVYDGSRRPSGIPERFSGSNSGNTATLTISRVEAGDEADYYCQVWDITSDHVVFGGGTQLTVL
B5: the binding result in assay [8] and in assay [9] was “binds” each time.

B6: A01 Fab (Fab, V domains shown)
VH: QVQLVQSGAEVKKPGSSVKVSCKASGGTFSSYAISWVRQAPGQGLEWMGGIIPIFGTANYAQKFQGRVTITADESTSTAYMELRSLRSDDTAVYYCARDNLGYCSGGSCYSDYYYYYMDVWGQGTLVTVSS
VL: SYELTQPPSVSVAPGRTATITCEGDNIGQQIVHWYQQKPGQAPVAVISSDSDRPSGIPERFSGSNSGNTATLTISRVEAGDEADYYCQVWDSGSDHVVFGGGTKVTVL
notes: also called A01 mAb
In assay [11], B6 registered a koff of 0.0295 s⁻¹. Further, the binding result in [9] is on record as “binds”. In addition, in assay [10], the Kd amounted to 2.1 ± 0.1 nM and the koff was 0.00017 s⁻¹.

B7: A04 Fab (Fab, V domains shown)
VH: QVQLVQSGAEVKKPGSSVKVSCKASGGTFSSYAISWVRQAPGQGLEWMGGIIPIFGTANYAQKFQGRVTITADESTSTAYMELRSLRSDDTAVYYCARDNLGYCSGGSCYSDYYYYYMDVWGQGTLVTVSS
VL: SYELTQPPSMSVAPGQTARITCGGDYIGGESVHWYQQKPGRAPVAVVYDDTHRPSGIPERFSGANSGNTATLTISKVEAGDEADYYCQVWDVSSDHVVFGGGTKLTVL
As for B7, the binding result in assay [8] and in assay [9] was “binds” each time.
